Test results published in patent US20050053993A1, “Uses of an endothelial cell receptor” (priority 2002, published 2005).

Tests used:
PC3 = experiment: Tumor cell proliferation, PC3; assay type: cell-based; settings: PC3, 72 hours
Procedure: (§1) Cell Proliferation Assay. The effect of rK5 and rK5 peptides on endothelial cells were assessed using a proliferation assay with 1% BSA and 3 ng/ml bFGF in serum-free media. Relative cell numbers in each well of a 96 well microplate after incubation for 72 hours in the absence or presence of inhibitors were determined by using the AQueous cell proliferation assay (Promega, San Luis Obispo, Calif.). For all other cell lines tested for proliferation, minimal growth media was used (Cao, Y., Ji, R., Davidson, D., Schaller, J., Marti, D., Sohndel, S., McCance, S., O'Reilly, M., Llinas, M., and Folkman, J. Kringle domains of human angiostatin. Characterization of the anti-proliferative activity on endothelial cells. (1996) J. Biol. Chem. 271, 29461-29467). Results are presented as the percent inhibition of control cell (bFGF-induced) proliferation.

B16F10 = experiment: Tumor cell proliferation, B16F10; assay type: cell-based; settings: B16F10, 72 hours
Procedure: as §1

HT1080 = experiment: Tumor cell proliferation, HT1080; assay type: cell-based, human; settings: HT1080, 72 hours
Procedure: as §1

[1] = system: EAHY cell surface proteins (~75 kDa and ~95 kDa); experiment: S-tag-K5 affinity pull-down of biotinylated EAHY surface proteins; assay type: binding; settings: 100 nM S-tag-K5; 1 μM peptides, 10 μM cold rK5
Procedure: The second method used to identify cell surface rK5 binding proteins was described previously (Zhang, J. C., et al, supra). Surface proteins on 4×10^6 EaHy cells were labeled with NHS-biotin. The cells were washed and lysed (M-Per, Pierce). Cell lysates were mixed with S-tag K5 for 1 hour at room temperature. S-tag K5 bound proteins were precipitated with S-protein agarose (Pierce). Bound proteins were eluted with excess rK5 or with excess PRKLYDY (SEQ ID NO:1) peptide. Eluted proteins were visualized with avidin-HRP and a chemiluminescent substrate. Mass spectroscopic analysis was used to identify the major protein bands.
In particular, surface proteins on 1×10^6 EAHY cells were labeled with NHS-biotin. The cells were washed 3× with PBS and lysed with M-pur. Cell lysates were mixed with (A) 100 nM S-tag-K5, (B) 100 nM S-tag-K5 plus 1 μM PRKLYDY, (C) 100 nM S-tag-K5 plus 10 μM cold rK5 and (D) 100 nM S-tag-K5 and N-terminal K5 peptide at 1 μM for 1 hour at room temperature. The K5 binding proteins were precipitated with S-protein-agarose. Bound proteins were eluted with 50 mM glycine buffer at pH 3.0 and run for PAGE analysis. Surface proteins (biotinylated) that bind K5 were visualized with avidin-HPR and a chemiluminescent substrate.

[2] = system: endothelial cell migration; experiment: Endothelial cell migration induced by various angiogenesis inducers (FIG. 9A); assay type: cell-based, human; settings: aFGF, bFGF, IL-8, PDGF, TGF-β and VEGF; rK5 400 pM (100 pM for VEGF, PDGF)
Procedure: FIG. 9A is a graph showing inhibition by rK5 of endothelial cell migration induced by a variety of angiogenesis inducers including aFGF, bFGF, IL-8, PDGF, TGF-β, VEGF, HGF and […] at concentrations of 50 ng/mL, 15 ng/mL, 40 ng/mL, 1 pg/mL, 100 pg/mL 40 ng/mL and 250 ng/mL respectively. The concentration of rK5 used was 400 pM except for VEGF (rK5=100 pM), PDGF (rK5=100 pM) and HGF (rK5=10 pM). Membranes were covered, fixed and stained and the number of cells that had migrated to the upper chamber per 10 high power field counted. Background migration to DME+0.1% BSA was subtracted and the data reported as the number of cells migrated per 10 high power fields (100×). […]
Endothelial cell migration assays: The effect of rK5 on endothelial cell migration was determined by two different methods. […] After 4 h, migrated cells were measured by fluorescence (Frevert C W, Wong V A, Goodman R B, Goodwin R, Martin T R. Rapid fluorescence-based measurement of neutrophil migration in vitro. J Immunol Methods. 1998 Apr. 1;213(1):41-52). […] Growth factors were used, where indicated, at concentrations determined in preliminary experiments to give equivalent migration responses of about 100 cells migrated/high powered field (400×). […] Membranes were recovered, fixed and stained and the number of cells that had migrated to the upper chamber per 10 high power fields counted. […]

B1: rK5: recombinant kringle 5 fragment of human plasminogen (residues 450-543), expressed in E. coli or yeast (protein)
chain: LLPDVETPSEEDCMFGNGKGYRGKRATTVTGTPCQDWAAQEPHRHSIFTPETNPRAGLEKNYCRNPDGDVGGPWCYTTNPRKLYDYCDVPQCAA
- IC50 values for cell proliferation (PC3): >100 µg/mL
- IC50 values for cell proliferation (B16F10): >100 µg/mL
- IC50 values for cell proliferation (HT1080): >100 µg/mL
- competition of protein binding to the S-tag K5 column [1]: competed
- inhibition of endothelial cell migration induced by inducers of angiogenesis [2]: inhibited
